Test results published in patent publication US20230203161A1 (TENEOBIO, published 2023).
Blank lines part the entries; values can stand above or below the binder they belong to.

Key:
[1] = target: T1, human Prostate Specific Membrane Antigen (PSMA) (human, UniProt Q04609 1-750); assay: flow cytometry on LNCaP cells
T1 construct: whole, on cells; also called Glutamate Carboxypeptidase II; FOLH1
Protocol: Briefly, 50,000 target cells were stained with a dilution series of purified UniAbs™ for 30 minutes at 4° C. Following incubation, the cells were washed twice with flow cytometry buffer (1×PBS, 1% BSA, 0.1% NaN₃) and stained with goat F(ab′)₂ anti-human IgG conjugated to R-phycoerythrin (PE) (Southern Biotech, cat. #2042-09) to detect cell-bound antibodies. After a 20-minute incubation at 4° C., the cells were washed twice with flow cytometry buffer and the mean fluorescence intensity (MFI) was measured by flow cytometry. The MFI of cells stained with secondary antibody alone were used for determination of background signal and binding of each antibody was converted to fold over background. […] In some experiments EC50 values were calculated using GraphPad Prism 7.
Column 1 indicates the clone ID of the HCAb. Column 2 indicates binding to LNCaP cells measured as fold over the background MFI signal.

[2] = target: T1, human Prostate Specific Membrane …; assay: cell binding, flow cytometry, MDA-PCa-2b cells
[3] = target: T1, human Prostate Specific Membrane …; assay: cell-based or functional assay
[4] = target: T1, human Prostate Specific Membrane …; assay: cell binding, flow cytometry, 22Rv1 cells
[5] = target: T1, human Prostate Specific Membrane …; assay: cell binding, flow cytometry, LNCAP cells
[6] = target: T1, human Prostate Specific Membrane …; assay: cell binding, flow cytometry, PC3-PSMA cells

T1 sequence (Q04609 whole entry): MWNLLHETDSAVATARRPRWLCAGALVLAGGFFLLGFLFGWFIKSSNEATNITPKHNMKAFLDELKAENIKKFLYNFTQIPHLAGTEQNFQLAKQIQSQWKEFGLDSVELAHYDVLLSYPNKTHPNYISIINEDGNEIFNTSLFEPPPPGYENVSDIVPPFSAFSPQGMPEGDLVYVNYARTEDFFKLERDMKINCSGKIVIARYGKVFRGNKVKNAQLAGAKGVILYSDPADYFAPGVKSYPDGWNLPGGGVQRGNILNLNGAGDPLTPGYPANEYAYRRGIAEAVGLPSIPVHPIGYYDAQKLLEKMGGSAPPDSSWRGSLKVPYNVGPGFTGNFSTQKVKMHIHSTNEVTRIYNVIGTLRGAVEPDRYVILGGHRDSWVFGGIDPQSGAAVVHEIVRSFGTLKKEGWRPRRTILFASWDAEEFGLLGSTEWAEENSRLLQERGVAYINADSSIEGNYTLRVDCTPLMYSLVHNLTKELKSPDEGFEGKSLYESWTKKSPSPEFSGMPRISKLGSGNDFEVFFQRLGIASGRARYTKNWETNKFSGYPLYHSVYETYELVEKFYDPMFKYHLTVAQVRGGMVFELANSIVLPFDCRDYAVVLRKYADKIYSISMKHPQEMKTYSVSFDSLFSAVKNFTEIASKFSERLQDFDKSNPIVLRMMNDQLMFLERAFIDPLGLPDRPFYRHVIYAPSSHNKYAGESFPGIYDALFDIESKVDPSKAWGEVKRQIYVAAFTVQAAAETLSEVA

fold over background MFI [1]: 13 fold over background
B1: anti-PSMA heavy-chain antibody (HCAb) clone ID 345510 (antibody, V domains shown)
VH: QVQLVESGGGVVQPGRSLRLSCAASGFSFSSYGMHWVRQAPGKGLEWVAVIWYDGSNKYYADSVKGRFTISRDNSKNTMYLQMNSLRAEDTAVYYCAREPRIGYYYESSGYYSLDYRGQGTLVTVSS
notes: Heavy chain-only antibody (UniAb)

EC50 [2]: 28 nM
IFNγ EC50, 22Rv1 cells [3]: 174 nM
IFNγ EC50, LNCAP cells [3]: 63 nM
IFNγ EC50, MDA-PCa-2b cells [3]: 116 nM
IFNγ EC50, PC3-PSMA cells [3]: 10.1 nM
IL-2 EC50, LNCAP cells [3]: 575 nM
IL-2 EC50, MDA-PCa-2b cells [3]: 38.5 nM
IL-2 EC50, PC3-PSMA cells [3]: 4.1 nM
EC50 [4]: 58 nM
EC50 [5]: 17 nM
EC50 [6]: 30 nM
B2: monoparatopic PSMA×CD3 bispecific antibody 346181×CD3 (bispecific antibody)
chain 1: QLQLQESGPGLVKPSETLSLTCTVSGGSISSSNYFWGWIRQSPGKGLEWIGSIDYSGYTYYNPSLKSRVTISVDTSKNQFSLKLSSVTAADTAVYNCARHKAATADFDYRGQGTLVTVSS
chain 2: EVQLVESGGGLVQPGRSLRLSCAASGFTFDDYAMHWVRQAPGKGLEWVSGISWNSGSIGYADSVKGRFTISRDNAKNSLYLQMNSLRAEDTALYYCAKDSRGYGDYRLGGAYWGQGTLVTVSS
chain 3: not shown
Kill EC50, 22Rv1 cells, resting T-cells [3]: 52.8 nM
Kill EC50, LNCAP cells, resting T-cells [3]: 14.6 nM
Kill EC50, MDA-PCa-2b cells, resting T-cells [3]: 23.6 nM
Kill EC50, PC3-PSMA cells, resting T-cells [3]: 3.7 nM

EC50 [2]: 2 nM
IFNγ EC50, 22Rv1 cells [3]: 380 nM
IFNγ EC50, LNCAP cells [3]: 3.29 nM
IFNγ EC50, MDA-PCa-2b cells [3]: 0.9 nM
IFNγ EC50, PC3-PSMA cells [3]: 1.01 nM
IL-2 EC50, LNCAP cells [3]: 3.73 nM
IL-2 EC50, MDA-PCa-2b cells [3]: 1.11 nM
IL-2 EC50, PC3-PSMA cells [3]: 1.1 nM
EC50 [4]: 3 nM
EC50 [5]: 2 nM
EC50 [6]: 6 nM
B3: biparatopic anti-PSMA×CD3 antibody 350123×CD3 (bispecific antibody)
chain 1: QLQLQESGPGLVKPSETLSLTCTVSGGSISSSNYFWGWIRQSPGKGLEWIGSIDYSGYTYYNPSLKSRVTISVDTSKNQFSLKLSSVTAADTAVYNCARHKAATADFDYRGQGTLVTVSSGGGGSGGGGSQVQLVESGGGVVQPGRSLRLSCAASGFSFSRYGMHWVRQAPGKGLEGVAVIWYDGSNRYYADSVKGRFTISRDNSKNTLYLQMNSLRAEDTAVYYCAREPRIGYYYESSGYYSLDYRGQGTLVTVSS
chain 2: B2 chain 2
chain 3: not shown
Kill EC50, 22Rv1 cells, resting T-cells [3]: 0.42 nM
Kill EC50, LNCAP cells, resting T-cells [3]: 0.84 nM
Kill EC50, MDA-PCa-2b cells, resting T-cells [3]: 0.41 nM
Kill EC50, PC3-PSMA cells, resting T-cells [3]: 0.4 nM
